Results as given in publication PMC6476560 (PLoS ONE, 2019).

Tests used:
Assay in all cases: MST
[1] = target: fluorescently labelled Dop (deamidase of Pup; depupylase) (UniProt P9WNU9)
[2] = target: fluorescein-labelled wild-type MtbMpa (Mycobacterium tuberculosis) (UniProt P9WQN5)
[3] = target: T1, Pup-MSMEG_1807 (pupylated alpha-chain of propionyl-CoA carboxylase of M. smegmatis) (Mycobacterium smegmatis | Mycobacterium …, UniProt A0QTE1 1-598; P9WHN5 1-64, PupE (C-terminal glutamine as glutamate)); conditions: both partners purified
T1 construct: copies: 2 + 1

[4] = target: T2, Pup-MSMEG_5049 (pupylated 2-oxoglutarate dehydrogenase E1 of M. smegmatis) (Mycobacterium smegmatis | Mycobacterium …, UniProt A0R2B1;P9WHN5, PupE (C-terminal glutamine as glutamate)); conditions: both partners purified
T2 construct: copies: 2 + 1
T2 sequence 1: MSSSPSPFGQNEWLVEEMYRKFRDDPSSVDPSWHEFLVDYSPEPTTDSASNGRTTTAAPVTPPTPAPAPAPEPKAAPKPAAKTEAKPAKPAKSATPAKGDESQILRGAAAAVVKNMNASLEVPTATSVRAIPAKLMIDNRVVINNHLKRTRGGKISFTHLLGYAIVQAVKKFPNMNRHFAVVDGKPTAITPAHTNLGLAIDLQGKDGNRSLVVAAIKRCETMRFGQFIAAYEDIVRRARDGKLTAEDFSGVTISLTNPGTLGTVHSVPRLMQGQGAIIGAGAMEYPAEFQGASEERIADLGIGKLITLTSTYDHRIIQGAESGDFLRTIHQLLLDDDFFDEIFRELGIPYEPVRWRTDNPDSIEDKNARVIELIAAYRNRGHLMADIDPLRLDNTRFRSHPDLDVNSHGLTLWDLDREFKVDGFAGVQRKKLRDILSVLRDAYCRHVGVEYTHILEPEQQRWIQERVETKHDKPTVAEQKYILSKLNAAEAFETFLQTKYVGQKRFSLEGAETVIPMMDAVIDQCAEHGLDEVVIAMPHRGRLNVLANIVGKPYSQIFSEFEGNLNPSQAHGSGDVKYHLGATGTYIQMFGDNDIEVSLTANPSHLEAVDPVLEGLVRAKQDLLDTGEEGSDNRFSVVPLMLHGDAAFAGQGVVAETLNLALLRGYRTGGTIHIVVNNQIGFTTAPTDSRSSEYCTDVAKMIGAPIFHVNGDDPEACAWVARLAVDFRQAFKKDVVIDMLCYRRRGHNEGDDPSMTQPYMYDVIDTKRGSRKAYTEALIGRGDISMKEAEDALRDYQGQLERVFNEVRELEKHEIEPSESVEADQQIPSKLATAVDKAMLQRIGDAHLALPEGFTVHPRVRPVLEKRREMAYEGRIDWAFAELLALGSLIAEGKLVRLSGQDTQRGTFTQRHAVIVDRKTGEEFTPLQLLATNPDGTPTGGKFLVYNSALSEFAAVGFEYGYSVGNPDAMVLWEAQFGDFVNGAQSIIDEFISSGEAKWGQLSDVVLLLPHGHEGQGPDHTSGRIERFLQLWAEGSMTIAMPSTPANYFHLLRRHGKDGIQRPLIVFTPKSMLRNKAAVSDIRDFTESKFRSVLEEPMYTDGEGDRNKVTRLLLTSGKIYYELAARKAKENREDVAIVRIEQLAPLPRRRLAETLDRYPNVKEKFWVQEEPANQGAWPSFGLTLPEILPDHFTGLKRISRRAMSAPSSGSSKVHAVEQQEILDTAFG
T2 sequence 2: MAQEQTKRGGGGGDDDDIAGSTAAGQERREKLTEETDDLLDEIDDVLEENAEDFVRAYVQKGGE

[5] = target: T3, fluorescein-labelled wild-type MtbMpa (Mycobacterium tuberculosis, UniProt P9WQN5 1-609); conditions: both partners purified
T3 sequence: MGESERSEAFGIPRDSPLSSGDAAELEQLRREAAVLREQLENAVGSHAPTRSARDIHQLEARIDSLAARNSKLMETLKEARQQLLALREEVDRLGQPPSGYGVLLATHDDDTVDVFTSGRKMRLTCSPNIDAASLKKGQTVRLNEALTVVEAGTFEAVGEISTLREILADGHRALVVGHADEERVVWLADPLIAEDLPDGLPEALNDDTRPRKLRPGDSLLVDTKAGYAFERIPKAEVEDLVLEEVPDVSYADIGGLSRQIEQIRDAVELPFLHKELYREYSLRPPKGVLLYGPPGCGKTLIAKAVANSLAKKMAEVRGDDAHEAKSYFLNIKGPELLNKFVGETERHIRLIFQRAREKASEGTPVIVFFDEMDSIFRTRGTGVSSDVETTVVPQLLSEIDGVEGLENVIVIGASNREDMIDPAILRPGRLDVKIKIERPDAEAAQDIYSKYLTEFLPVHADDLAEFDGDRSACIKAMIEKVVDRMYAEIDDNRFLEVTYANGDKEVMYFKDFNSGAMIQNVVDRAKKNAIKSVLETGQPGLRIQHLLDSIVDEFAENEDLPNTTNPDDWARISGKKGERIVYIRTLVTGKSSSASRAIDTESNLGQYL

Pup-MSMEG_2412 (pupylated pyruvate carboxylase of M. smegmatis) (from UniProt P9WHN5 1-64) (complex)
Kd [1]: 114 nM

Pup-FabD3KR (pupylated malonyl transacylase FabD, triple lysine-to-arginine variant) (from UniProt P9WNG5;P9WHN5) (complex)
Kd [2]: 240 nM

B1: fluorescently labelled Dop (deamidase of Pup; depupylase) (enzyme)
chain: MQRIIGTEVEYGISSPSDPTANPILTSTQAVLAYAAAAGIQRAKRTRWDYEVESPLRDARGFDLSRSAGPPPVVDADEVGAANMILTNGARLYVDHAHPEYSAPECTDPLDAVIWDKAGERVMEAAARHVASVPGAAKLQLYKNNVDGKGASYGSHENYLMSRQTPFSAIITGLTPFLVSRQVVTGSGRVGIGPSGDEPGFQLSQRSDYIEVEVGLETTLKRGIINTRDEPHADADRYRRLHVIIGDANLAETSTYLKLGTTALVLDLIEEGPAHAIDLTDLALARPVHAVHAISRDPSLRATVALADGRELTGLALQRIYLDRVAKLVDSRDPDPRAADIVETWAHVLDQLERDPMDCAELLDWPAKLRLLDGFRQRENLSWSAPRLHLVDLQYSDVRLDKGLYNRLVARGSMKRLVTEHQVLSAVENPPTDTRAYFRGECLRRFGADIAAASWDSVIFDLGGDSLVRIPTLEPLRGSKAHVGALLDSVDSAVELVEQLTAEPR
Kd [3]: 339 ± 55 nM | Kd [4]: 121 ± 28 nM

B2: MtbPupE (prokaryotic ubiquitin-like protein Pup with C-terminal glutamate), free (natural protein)
chain: T2 sequence 2
Kd [5]: 3310 ± 650 nM
